Substitutions are numbered along the chain they refer to.
Legend:
[1] = molecular target: T1, Mtr4p-K700N (Saccharomyces cerevisiae, UniProt P47047 1-1073, K700N); test: EMSA; no ATP or Mg2+ listed; 1 mM EDTA; EMSA: 0.5 nM RNA, 10 mM Tris pH 7.5, 1 mM EDTA, 100 mM KCl, 0.1 mM DTT, 5% glycerol, 1% NP40, on ice 30 min; 5% native PAGE at 4 C; conditions: protein: recombinant; tags: His (His60 Ni purification); label: 5' 32P on R4 (top strand); 16 bp duplex, 3' overhang 6 nt on R1
T1 sequence: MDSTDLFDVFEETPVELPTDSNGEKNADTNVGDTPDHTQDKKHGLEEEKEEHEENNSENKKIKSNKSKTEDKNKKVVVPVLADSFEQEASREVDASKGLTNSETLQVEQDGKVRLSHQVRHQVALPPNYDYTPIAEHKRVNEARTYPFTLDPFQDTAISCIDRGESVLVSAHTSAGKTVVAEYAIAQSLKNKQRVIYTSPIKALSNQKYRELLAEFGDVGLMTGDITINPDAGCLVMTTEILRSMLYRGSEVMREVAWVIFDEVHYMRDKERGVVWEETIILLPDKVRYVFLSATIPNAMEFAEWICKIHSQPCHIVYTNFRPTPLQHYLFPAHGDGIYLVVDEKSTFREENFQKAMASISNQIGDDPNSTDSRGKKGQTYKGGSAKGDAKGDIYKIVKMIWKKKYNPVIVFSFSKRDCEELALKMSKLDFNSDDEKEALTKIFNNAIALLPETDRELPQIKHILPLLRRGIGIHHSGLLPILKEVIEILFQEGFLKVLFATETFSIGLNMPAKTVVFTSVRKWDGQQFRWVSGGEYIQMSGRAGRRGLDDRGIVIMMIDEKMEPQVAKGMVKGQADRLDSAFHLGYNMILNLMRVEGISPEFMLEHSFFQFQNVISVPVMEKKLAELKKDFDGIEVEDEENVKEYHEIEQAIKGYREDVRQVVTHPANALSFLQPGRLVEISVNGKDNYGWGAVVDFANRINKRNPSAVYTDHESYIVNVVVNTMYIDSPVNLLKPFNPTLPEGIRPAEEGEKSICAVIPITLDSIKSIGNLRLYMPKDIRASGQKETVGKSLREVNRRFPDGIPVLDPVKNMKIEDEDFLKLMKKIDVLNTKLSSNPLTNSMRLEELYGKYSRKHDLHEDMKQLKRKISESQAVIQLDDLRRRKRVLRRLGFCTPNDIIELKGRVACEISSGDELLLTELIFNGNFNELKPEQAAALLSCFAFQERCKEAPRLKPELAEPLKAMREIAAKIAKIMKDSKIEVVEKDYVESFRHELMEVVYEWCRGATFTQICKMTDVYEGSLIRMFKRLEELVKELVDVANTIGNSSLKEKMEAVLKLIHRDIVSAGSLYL

[2] = molecular target: T2, Mtr4p-P731S (Saccharomyces cerevisiae, UniProt P47047 1-1073, P731S); test: as above; conditions: protein: recombinant; tags: His (His60 Ni purification); label: 5' 32P on R4 (top strand); 16 bp duplex, 3' overhang 6 nt on R1
T2 sequence: T1 sequence with N700K, P731S

B1: R1-4 RNA duplex (R4 top / R1 bottom) (dsRNA)
RNA 1: AGCACCGUAAAGACGC
RNA 2: GCGUCUUUACGGUGCUAGCUUA
[1]
  binding signal: < 50 % of wild-type complex
[2]
  binding signal: ~50 % of wild-type complex
